# B1: hCB2-1/622: murine IgG3 monoclonal anti-human CB2 antibody, VH SEQ ID NO: 1, VL SEQ ID NO: 2, HC SEQ ID NO: 3, LC SEQ ID NO: 4 (antibody)
# heavy: EVQLQQSGPELVKPGASVKISCKTSGYTFTEYTMHWVRQSHGKSLEWIGGIDRYNGDTYYNQKFKDKATLTVDRSSSTAYMELRSLTSEDSAVYFCARNGAMDYWGQGISVTVSSATTTAPSVYPLVPGCSDTSGSSVTLGCLVKGYFPEPVTVKWNYGALSSGVRTVSSVLQSGFYSLSSLVTVPSSTWPSQTVICNVAHPASKTELIKRIEPRIPKPSTPPGSSCPPGNILGGPSVFIFPPKPKDALMISLTPKVTCVVVDVSEDDPDVHVSWFVDNKEVHTAWTQPREAQYNSTFRVVSALPIQHQDWMRGKEFKCKVNNKALPAPIERTISKPKGRAQTPQVYTIPPPREQMSKKKVSLTCLVTNFFSEAISVEWERNGELEQDYKNTPPILDSDGTYFLYSKLTVDTDSWLQGEIFTCSVVHEALHNHHTQKNLSRSPGK
# light: DVVMTQTPLSLPVSLGDQASISCRSSQSLVHSNGNTYLHWFLQKPGQSPKLLIYKVSIRFSGVPDRFSGSGSGTDFTLKISRVEAEDLGVYFCSQSTHVPPLTFGAGTKLELKRADAAPTVSIFPPSSEQLTSGGASVVCFLNNFYPKDINVKWKIDGSERQNGVLNSWTDQDSKDSTYSMSSTLTLTKDEYERHNSYTCEATHKTSTSPIVKSFNRNEC
# Tests used:
# Type in all cases: binding
# [1] = target: T1, pANITA3.1 mCB2 (JB176) (Mus musculus, UniProt P47936); assay: Immunoprecipitation from whole cell lysates; parameters: key to Immunoprecipitation signal intensity: “−” no signal; “+”-“+++++” signal intensity; “+”-“+++++” signal intensity; “+”-“+++++” signal intensity; “+”-“+++++” signal intensity; “+”-“+++++” signal intensity
# T1 construct: expressed in transfected cells; host or cells: HEK293
# T1 sequence (P47936 with tags, fused parts or gaps): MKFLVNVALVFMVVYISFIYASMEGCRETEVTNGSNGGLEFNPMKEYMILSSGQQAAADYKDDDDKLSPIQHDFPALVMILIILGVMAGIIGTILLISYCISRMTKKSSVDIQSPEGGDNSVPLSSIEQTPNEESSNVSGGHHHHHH
# Method: (§1) The positive clones (Table 1) were further characterized by immunofluorescence (IF; Table 2), Western Blot (Table 3, 1) and Immune precipitation (Table 4, 2) on full length hCB2, hCB1, mCB2 stable-transfected CHO-cell lines in addition to the 2 pANITA constructs.
# (§2) For immunoprecipitation (IP), whole cell lysates were incubated with the respective antibodies. IP was performed according to established protocols and subsequent western blot as described herein above.
# [2] = target: T2, CHO-A2 mCB2 (Mus musculus, UniProt P47936); assay: Immunoprecipitation from whole cell lysates; parameters: key: “−” no signal; “+”-“+++++” signal intensity; “+”-“+++++” signal intensity; “+”-“+++++” signal intensity; “+”-“+++++” signal intensity; “+”-“+++++” signal intensity; conditions: CHO-A2 mCB2 lysate
# T2 construct: expressed in transfected cells
# T2 sequence (P47936 whole entry): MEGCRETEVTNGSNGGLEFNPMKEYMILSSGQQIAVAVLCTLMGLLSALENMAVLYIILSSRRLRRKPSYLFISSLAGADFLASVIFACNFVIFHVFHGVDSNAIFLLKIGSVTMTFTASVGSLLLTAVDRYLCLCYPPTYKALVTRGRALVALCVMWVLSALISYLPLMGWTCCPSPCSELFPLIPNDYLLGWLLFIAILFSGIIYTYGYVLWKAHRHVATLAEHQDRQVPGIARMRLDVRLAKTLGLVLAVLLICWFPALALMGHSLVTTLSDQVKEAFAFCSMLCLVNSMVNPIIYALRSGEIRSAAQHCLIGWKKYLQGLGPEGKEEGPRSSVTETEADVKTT
# Method: as §1, §2
# [3] = target: T3, CHODukx CRE hCB1 Cl.20 (Homo sapiens, UniProt P21554); assay: Immunoprecipitation from whole cell lysates; parameters: key: “−” no signal; “+”-“+++++” signal intensity; “+”-“+++++” signal intensity; “+”-“+++++” signal intensity; “+”-“+++++” signal intensity; “+”-“+++++” signal intensity; conditions: CHODukx CRE hCB1 Cl.20 lysate
# T3 construct: expressed in transfected cells
# T3 sequence (P21554 whole entry): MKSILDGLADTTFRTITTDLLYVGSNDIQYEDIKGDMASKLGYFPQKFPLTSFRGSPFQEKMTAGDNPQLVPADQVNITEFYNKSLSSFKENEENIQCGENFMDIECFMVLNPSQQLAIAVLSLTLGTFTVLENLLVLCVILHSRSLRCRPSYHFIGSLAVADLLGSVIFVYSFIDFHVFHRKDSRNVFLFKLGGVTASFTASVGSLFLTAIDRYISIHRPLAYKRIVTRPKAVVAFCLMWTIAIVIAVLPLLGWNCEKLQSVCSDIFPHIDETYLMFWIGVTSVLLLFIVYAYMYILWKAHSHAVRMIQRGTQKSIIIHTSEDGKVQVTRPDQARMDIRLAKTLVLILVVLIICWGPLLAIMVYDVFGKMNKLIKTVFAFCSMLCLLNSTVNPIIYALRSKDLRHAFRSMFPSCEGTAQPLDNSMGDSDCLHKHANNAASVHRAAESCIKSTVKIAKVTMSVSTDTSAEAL
# Method: as §1, §2
# [4] = target: T4, CHO K1 h CB2 cell line (Homo sapiens, UniProt P34972); assay: Flow cytometry with increasing antibody levels on CHO K1 cells; conditions: 0.1, 1 or 10 μg/ml antibody; CHO K1 hCB2
# T4 construct: expressed in transfected cells; host or cells: CHO K1
# T4 sequence (P34972 whole entry): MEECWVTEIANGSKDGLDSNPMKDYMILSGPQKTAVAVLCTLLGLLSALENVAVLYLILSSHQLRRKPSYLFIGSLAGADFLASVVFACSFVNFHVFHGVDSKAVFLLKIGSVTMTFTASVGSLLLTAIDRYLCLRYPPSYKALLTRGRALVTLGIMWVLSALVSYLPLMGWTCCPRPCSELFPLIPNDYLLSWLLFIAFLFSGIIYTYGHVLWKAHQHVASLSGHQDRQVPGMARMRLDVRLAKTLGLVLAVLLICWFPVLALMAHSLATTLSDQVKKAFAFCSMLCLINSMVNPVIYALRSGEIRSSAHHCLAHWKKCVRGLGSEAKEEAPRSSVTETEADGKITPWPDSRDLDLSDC
# Source text: (§3) FIG. 3: Analysis of the specificity of the anti hCB2 antibody 1/622 for hCB2. Flow cytometric analysis with increasing concentrations of hCB2 antibody 1/622 in CHO cells transfected with hCB2 (light brick) and hCB1 (dark brick). Untransfected CHO cells (black) serve as a negative control. For detection an F(ab)2 goat-anti Mouse IgG3 PE antibody was used.
# (§4) Further evidence for the specificity of the anti-human CB2 antibody 1/622 was generated by flow cytometry experiments using increasing levels of the antibody on untransfected, hCB1 or hCB2 transfected CHO K1.
# (§5) The cells were washed 1× with 1× DPBS without CaCl2 and MgCl2 (Gibco, #14190-094). Accutase (Sigma, #A6964) was added and the cell were placed back in the incubator. Once the cells had detached, they were collected in a Falcon tube containing DMEM high glucose+GlutaMAX (Gibco, #31966-021) and 10% heat inactivated FBS (Gibco, #16140-071). Cells were centrifuged for 5 minutes at 250×g and 4° C. and the cell pellet was resuspended in cell staining buffer (BioLegend, #420201) and put them on ice until further usage. The cells were incubated with 0.1, 1 or 10 μg/ml hCB2-1/622 antibody and incubated for 30 minutes at 4° C. After the incubation, the tubes were centrifuged for 5 minutes with 250×g and 4° C. The supernatant was removed completely, cells were washed two times with cold cell staining buffer and supernatant removed completely after the centrifugation. Human FcR Blocking Reagent (Miltenyi Biotech, Cat #130-059-901) was diluted according to the package insert instructions with cold cell staining buffer. To each sample 50 μl was added, mixed and incubated for 10 minutes at 4° C. The secondary antibody Goat F(ab′)2 Anti-Mouse IgG3 PE (Southern Biotech, Cat #1102-09) was diluted 1:25 in cold cell staining buffer. To each sample 50 μl was added, mixed and incubated for 30 minutes at 4° C. in the dark. After the incubation cells were washed 2× with cold cell staining buffer and supernatant removed completely after centrifugation. […]
# [5] = target: T5, CHO K1 hCB1R (Homo sapiens, UniProt P21554); assay: as above; conditions: 0.1, 1 or 10 μg/ml antibody
# T5 construct: expressed in transfected cells; host or cells: CHO K1
# T5 sequence (P21554 whole entry): as the sequence (P21554 whole entry) above
# Source text: as §3, §4, §5
# [6] = system: untransfected CHO K1 controls; assay: as above; conditions: 0.1, 1 or 10 μg/ml antibody
# Source text: as §3, §4, §5
# [7] = system: CHO-DUKX parental cells; assay: Flow cytometry on CHO-DUKX cells
# Source text: (§6) FIG. 4: Flow cytometric analysis of hCB2 antibody 1/622 in CHO-DUKX parental and CHO-DUKX_HOMSA_CNR2_Clone_90_CRE-Luc cells transfected with hCB2. For detection an F(ab)2 goat-anti Mouse IgG3 PE antibody was used. The anti-human CB2 antibody 1/622 detects the CB2 in the CHO cells transfected with hCB2 with a signal to background ratio of 10, the CHO-DUKX parental cells are negative.
# [8] = target: T6, CHO-DUKX_HOMSA_CNR2_Clone_90_CRE-Luc cells transfected with hCB2 (Homo sapiens, UniProt P34972); assay: Flow cytometry on CHO-DUKX cells; conditions: transfected vs parental untransfected CHO cells
# T6 construct: expressed in transfected cells
# T6 sequence (P34972 whole entry): as the sequence (P34972 whole entry) above
# Source text: as §6
molecule,measurement,setting,value
B1,immunoprecipitation cross reactivity,[1]; mCB2,no cross reactivity
same,Immunoprecipitation signal intensity,[1]; pANITA3.1 mCB2 (JB176) lysate,−
same,Immunoprecipitation signal intensity,[2],−
same,Immunoprecipitation signal intensity,[3],−
same,median fluorescence intensity (MFI) signal,[4],dose related increase
same,median fluorescence intensity (MFI) signal,[5],remained at background levels
same,median fluorescence intensity (MFI) signal,[6],remained at background levels
same,flow cytometric detection of CB2,[7],negative
same,signal to noise ratio for detection of human CB2,[8],good signal to noise ratio

# From patent US20260029420A1, “ANTI-CB2 ANTIBODIES AND THEIR USE IN A FLOW CYTOMETRY ASSAY TO MEASURE CELL SURFACE CB2 EXPRESSION” (Hoffmann-La Roche Inc., priority 2022, published 2026)
